Results on five molecules are retold here after patent publication US20030092066A1, “Purified Stat proteins and methods of purifying thereof” (published 2003).

Data set [1] has as its target nonphosphorylated human Stat1α (human) (UniProt P42224). Kind of data set: cell-based or functional assay.
For data set [2], the target named is tyrosine-phosphorylated Stat1tc, truncated Stat1 (132-713) (human) (UniProt P42224). Kind of data set: cell-based or functional assay.
The target in data set [3] is tyrosine-phosphorylated human Stat1α (human) (UniProt P42224). Nature of the data set: cell-based or functional assay.
Data set [4] deals with T1, Stat1tc (Stat1 132-713, Tyr701-phosphorylated, NEM-alkylated) (Homo sapiens, UniProt P42224 SEQ:1-582).
T1 chain: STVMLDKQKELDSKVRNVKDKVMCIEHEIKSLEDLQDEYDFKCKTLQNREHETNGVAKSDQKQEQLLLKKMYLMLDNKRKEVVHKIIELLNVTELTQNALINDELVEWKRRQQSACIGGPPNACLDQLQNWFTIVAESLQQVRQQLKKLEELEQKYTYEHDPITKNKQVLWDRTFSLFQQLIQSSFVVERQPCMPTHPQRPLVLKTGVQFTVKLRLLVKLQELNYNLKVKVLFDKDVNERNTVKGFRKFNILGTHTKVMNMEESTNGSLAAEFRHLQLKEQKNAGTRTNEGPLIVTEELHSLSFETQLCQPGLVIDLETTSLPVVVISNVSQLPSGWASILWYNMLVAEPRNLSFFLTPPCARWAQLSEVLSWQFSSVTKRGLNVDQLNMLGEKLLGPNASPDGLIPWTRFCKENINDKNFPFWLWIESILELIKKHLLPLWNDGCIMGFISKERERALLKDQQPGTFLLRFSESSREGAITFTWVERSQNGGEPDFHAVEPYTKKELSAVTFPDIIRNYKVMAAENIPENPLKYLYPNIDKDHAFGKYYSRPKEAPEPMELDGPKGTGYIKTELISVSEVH
Nature of the data set: EMSA; dimer and two-dimer complexes both displaced in <1 min; no stabilisation (lacks residues 1-131). To be noted: tags: none; E. coli; initiator Met absent; phosphorylated in vitro by EGF-receptor kinase; chain copies: 2 (stated, homodimer); label: 32P (Klenow fill-in); protruding 5'-TCC, filled in; two parallel sites. As to the method:
FIG. 6A. Comparison of the dissociation rates of complexes containing DNA fragments with two consecutive binding sites (2×osWT, 10 bp apart) and Stat1α (right) or Stat1tc (left). 0.5×10⁻⁹ M dimer was prebound with 0.7×10⁻⁹ M radiolabelled DNA for 5 min at room temperature (lanes 1 and 8). After the addition of a 100-fold molar excess of unlabelled DNA at time point zero the reaction was further incubated for the times indicated before aliquots were loaded on a running polyacrylamide gel. At time zero two differently migrating complexes are visible, denoted “(2×(Dimer))” and “Dimer”. Unbound (free) DNA runs at the bottom of the gel.
Dissociation rate determination. Under the reaction conditions described above, each oligonucleotide (at 2×10⁻⁹ M or otherwise stated) was mixed with 0.55×10⁻⁹ M dimer of purified phosphorylated Stat1 protein. The reaction volume was scaled up to 100 μl. The reaction was incubated for 5-15 min at room temperature and for time zero, an aliquot (10 μl) was removed and loaded directly onto a pre-run polyacrylamide gel (see above). […] Gels were dried, exposed to X-ray film and labelled protein/DNA complexes and unbound labelled DNA were quantitated as described above. The half life was determined from a semi-log plot of the numerical data (shifted radioactivity over shifted radioactivity at time zero versus time). […]

Data set [5] concerns the molecule itself. Kind of data set: dimerization in solution, method not given.

In data set [1], “EGF-receptor from human carcinoma A431 cells (from UniProt P00533 25-1210)” registered a percentage of Stat protein that was phosphorylated below 75%.

“tyrosine-phosphorylated Stat1tc, truncated Stat1 (132-713) (from UniProt P42224 132-713)”: the displacement of dimeric and [2×(dimeric)] complexes on tandem DNA sites by excess unlabelled oligonucleotide in data set [2] is below 1 min.

Molecule “tyrosine-phosphorylated human Stat1α (from UniProt P42224 1-750)” returned a displacement of the [2×(dimeric)] complex on tandem DNA sites by excess unlabelled oligonucleotide in data set [3] above 30 min.

B1: 2xcfosWT tandem, 10 bp spacing (dsDNA)
DNA 1: AGTCAGTTCCCGTCAATGCATCAGGTTCCCGTCAATGCAT
DNA 2: ATGCATTGACGGGAACCTGATGCATTGACGGGAACTGACT
On to B1, for which the binding result in data set [4] is recorded as “binds”.

B2: amino terminal domain of Stat1 (amino terminal 131 amino acids) (other)
chain: MSQWYELQQLDSKFLEQVHQLYDDSFPMEIRQYLAQWLEKQDWEHAANDVSFATIRFHDLLSQLDDQYSRFSLENNFLLQHNIRKSKRNLQDNFQEDPIQMSMIIYSCLKEERKILENAQRFNQAQSGNIQ
notes: also called 16 kDa fragment; N-terminal fragment
B2: the binding result in data set [5] is given as “binds”.
